Data on 30 sequences can be found in the nanobody polyreactivity screen of Harvey et al. (2022).

A short description of this series: yeast display, Sf9 membrane polyspecificity reagent, FACS + sequencing; frameworks hold sequencing errors. Summed up:
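Galactose-induced (36–48 hours) yeast carrying a synthetic nanobody display library were exposed to 10% biotinylated, detergent-solubilized Sf9 membrane reagent at 4 °C for 1 hour. FACS followed streptavidin microbead enrichment, using low and high (top ~1%) gates for expression (anti-HA) and reagent binding (streptavidin). Colony PCR, MiSeq 2 × 250 sequencing and CDR-length filtering followed. Labels for polyreactivity reflect the gate of origin.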
Take “QVQLVESGGGLVQAGGSLRLSCAASGRIFDYYAMGWYRQAPGKERELVAAISSSVGNTYYADSVKGRFTISRDNAKNSVYLQINSLKQEDTAVYYCADYSYVRSSYEVEYDYWGQGTQVTVSS”: the “polyreactivity (PSR sort gate)” value was “low polyreactivity”.

For “QVQLVESGGGLVQAGGSLRLSCAASGRIFDYYAMGWYRQAPGKERELVASISRSGGSTYYADSVKGRFTISRDNAKNTVYLQMNSLKPDDSAVYYCAASRGYYYGRVGYWGQGTQVTVSS”, the “polyreactivity (PSR sort gate)” value is “high polyreactivity”.

Turning to “QVQLVESGGGLVQAGGSLRLSCAASGRIFDYYAMGWYRQAPGKERELVATINFSDGSTYYADSVKGRFTISRDNAKNTVYLQMNSLKPEDTAGYYCAAAGWEPYDSLDMNYWGQGTQVTVSS”, the “polyreactivity (PSR sort gate)” value is “low polyreactivity”.

With “QVQLVESGGGLVQAGGSLRLSCAASGRIFEHYAMGWYRQAPGKERELVAAITVSVGSTYYADSVKGRFTISRDNAKNTVYLEMNSLKPEDTAVYYCAAGIHCRYARDWYEYWGQGTQVTVSS”, the “polyreactivity (PSR sort gate)” value is “low polyreactivity”.

In the case of “QVQLVESGGGLVQAGGSLRLSCAASGRIFEINAMGWYRQAPGKERELVAGISYSGGSTYYADSVKGRFTISRDNAKNTVYLQMNSLKPEDTAVYYCAALFQSYQITYDSWGQGTQVTVSS”, the “polyreactivity (PSR sort gate)” value is listed as “low polyreactivity”.

With “QVQLVESGGGLVQAGGSLRLSCAASGRIFELYAMGWYRQAPGKERELVADITTIGDSTYYADSVKGRFTISRDNAKNTVYLQMNSLKPEDTAVYYCAADPYVDSYDSWGQGTQVTVSS”, the “polyreactivity (PSR sort gate)” value is “low polyreactivity”.

In the case of “QVQLVESGGGLVQAGGSLRLSCAASGRIFEYYAMGWYRQAPGKERELVAVISSGSSTNYADSVKGRFTISRDNAKNTVYLQMNSLKPEDTAVYYCAAEYSVYYRFSDGDYWGQGTQVTVSS”, the “polyreactivity (PSR sort gate)” value is reported as “low polyreactivity”.

“QVQLVESGGGLVQAGGSLRLSCAASGRIFFANAMGWYRQAPGKERELVAAISWRGGSTYYADSVKGRFTISRDNAKNTFYLQMNSLKPEDTAVYYCNAVTRGYYHEMEYWGQGTQVTVSS”: the “polyreactivity (PSR sort gate)” value was “high polyreactivity”.

Regarding “QVQLVESGGGLVQAGGSLRLSCAASGRIFFANAMGWYRQAPGKEWELVGAISRGGRTNYADSVKGRFTISRDNAKNTVYLQMNSLKPEDTAVYYFAAVRLSHAPSYYLYGMAYWGHGTQVTVSS”, the “polyreactivity (PSR sort gate)” value is “low polyreactivity”.

In the case of “QVQLVESGGGLVQAGGSLRLSCAASGRIFFAYAMGWYRQAPGKEREFVAAISDNDGSTYYADSVKGRFTISRDNAKNTVYLQMNSLKPEDTAVYYCNADLGYVYDYWGQGTQVTVSS”, the “polyreactivity (PSR sort gate)” value is on record as “low polyreactivity”.

Take “QVQLVESGGGLVQAGGSLRLSCAASGRIFFDYAMGSYRQAPGKEWVLVAAINRGGRTYYADSVKGRFTMSRDNAKNTVYLPMNTLKPEDTAVYYCPADGQTAKSNFAYWGQRTQVTVSS”: the “polyreactivity (PSR sort gate)” value is reported as “low polyreactivity”.

For “QVQLVESGGGLVQAGGSLRLSCAASGRIFFFNAMGWYRQAPGKERELVARITRGGSTNYADSVKGRFTISRDNAKNTVYLQMNILKPEDTAVYYCARDGYATTNARYGYDYWGQGTQVTVSS”, the “polyreactivity (PSR sort gate)” value is “low polyreactivity”.

For the sequence “QVQLVESGGGLVQAGGSLRLSCAASGRIFFHYAMGWYRQAPGKERELVAVISSSGGITYYADSVKGRFTFSRDNAKNTVYLQMNSLKPEDTAVYYCNTVPRPFDRYGYWGQGTQVTVSS”, the “polyreactivity (PSR sort gate)” value is on record as “low polyreactivity”.

In the case of “QVQLVESGGGLVQAGGSLRLSCAASGRIFFLNTMGWYRQAPGKERELVAAITRGGSTYYADSVKGRFTISRDNAKNTVYLQMNSLKPEDTAVYYCAADVYGGIGYDYWGQGTQVTVSS”, the “polyreactivity (PSR sort gate)” value was “low polyreactivity”.

“QVQLVESGGGLVQAGGSLRLSCAASGRIFFLYAMGWYRQAPGKERELVASINRGGNTNYADSVKGRFTISRDNAKNTVYLHMNSLKPEDTAVYYCAARLVIFYPYSRYYYWGQGTQVTVSS”: the “polyreactivity (PSR sort gate)” value was “high polyreactivity”.

On to “QVQLVESGGGLVQAGGSLRLSCAASGRIFFPYAMGWYRQAPGKERELVAAINYSGGSTYYADSVKGRFTISRDNAKNTVYLQMNSLKPEDTAVYYCADGYFWALYVRKYDYWGQGTQVTVSS”, for which the “polyreactivity (PSR sort gate)” value is reported as “high polyreactivity”.

Take “QVQLVESGGGLVQAGGSLRLSCAASGRIFFRYVMGWYRQAPGKERELVAAIDRGGTTNYADSVKGRFTISRDNAKNTVYLQMNSLKPEDTAVYYCAVRYFPYRDYYWGQGTQVTVSS”: the “polyreactivity (PSR sort gate)” value is on record as “high polyreactivity”.

“QVQLVESGGGLVQAGGSLRLSCAASGRIFFTNAMGWYRQAPGKERELVAAISKYGARTYYADSVKGRFTISRDKAKNTVYLQMNSLKPEDTAVYYCAADVSVSGYYYWGQGTQVTVSS”: the “polyreactivity (PSR sort gate)” value was “high polyreactivity”.

In the case of “QVQLVESGGGLVQAGGSLRLSCAASGRIFFTNTMGWYRQAPGKERELVAAITRSGTRTYYADSVKGRFTISRDNAKNTVYLQMNSLKPEDTAVYYCNAVVRQLVRYDYWGQGTQVTVSS”, the “polyreactivity (PSR sort gate)” value was “high polyreactivity”.

“QVQLVESGGGLVQAGGSLRLSCAASGRIFFVYAMGWYRQAPGKERELVASITGGGSTNYADSVKGRFTISRDNAKNTVYLQMNSLKPEDTAVYYCAADIHSTRVFPEYPSGYDYWGQGTQVTVSS”: the “polyreactivity (PSR sort gate)” value is “low polyreactivity”.

“QVQLVESGGGLVQAGGSLRLSCAASGRIFFVYAMGWYRQSPGKERELVAAISVSDVSTSYADSVKGRFTISRDIAKNTVYLQMNSLKQEDTAVYYCNAGFRFYVYSRIGGEDYWGQGTQVTVSS”: the “polyreactivity (PSR sort gate)” value was “low polyreactivity”.

Regarding “QVQLVESGGGLVQAGGSLRLSCAASGRIFFYNAMGWSRQAPGKERELVAAISARGDRTYYADSVKGRFTISRDNAKNTVYLQMNSLKPEDTAVYYCAADYYNYRYDYWGQGTQVTVSS”, the “polyreactivity (PSR sort gate)” value was “high polyreactivity”.

As to “QVQLVESGGGLVQAGGSLRLSCAASGRIFGANAMGWYRQAPGKERELVAAISYSGSRTYYADSVKGRFTISRDNAKNTVYLQMNSLKPEDTAVYYCNTGIAGRRSGYRTDSDYWGQGTQVTVSS”, the “polyreactivity (PSR sort gate)” value is given as “high polyreactivity”.

Consider “QVQLVESGGGLVQAGGSLRLSCAASGRIFGAYALGWYRQAPGKERELVAAINSGGSTFYAHSVKGRFTISRDNAKNTVYLQLNSLKPDDTAVYYCAKRSYDYRRYYWGQGTQVTVSS”, for which the “polyreactivity (PSR sort gate)” value is on record as “high polyreactivity”.

As for “QVQLVESGGGLVQAGGSLRLSCAASGRIFGAYAMGWSRQAPGKERELVAAISSSGSRTYYADSVKGRFTISRDNAKNTVYLQMNSLKPEDTAVYYCAATRVSALYDYWGQGTQVTVSS”, the “polyreactivity (PSR sort gate)” value is on record as “high polyreactivity”.

For “QVQLVESGGGLVQAGGSLRLSCAASGRIFGAYAMGWYRQAPGKERELVAAITGGGSTYYADSVKGRFTISRDNAKTTVYLQMKSLKPEDTAVYYCAADYYWTYSYYYERFDYWGQGTQVTVSS”, the “polyreactivity (PSR sort gate)” value is recorded as “low polyreactivity”.

As to “QVQLVESGGGLVQAGGSLRLSCAASGRIFGAYAMGWYRQAPGKERELVAVITTDGSTTYADSVKGRFTISRDNAKNTVYLQMNSLKPEDTAVYYCAAYGGNGQYYSQYDYWGQGTQVTVSS”, the “polyreactivity (PSR sort gate)” value is “low polyreactivity”.

Take “QVQLVESGGGLVQAGGSLRLSCAASGRIFGDNALGWYRQAPGKERELVAAITWSGGSTYYADSVKGRFTISRDNAKNTVYLQMNSLKPEDTAVYYCAADSHRDSSEMDYWGQGTQVTVSS”: the “polyreactivity (PSR sort gate)” value is “low polyreactivity”.

With “QVQLVESGGGLVQAGGSLRLSCAASGRIFGDNDMGWSRQAPGKDRELVAGIRWRADRTYYADSVKGRFTISRDNAKNTVYLQMNSLKPEDTAVYYCNVGSFTGHSYGFGYWGQGTQVTVSS”, the “polyreactivity (PSR sort gate)” value is recorded as “low polyreactivity”.

On to “QVQLVESGGGLVQAGGSLRLSCAASGRIFGDNGMGWYRQAPGKERELVTYADSVKGRFTISRDNAKNTVYLQMNSLKAEDTAVYESNKDPPGFSGLDEIYWGQGTQVTVSS”, for which the “polyreactivity (PSR sort gate)” value is on record as “low polyreactivity”.
